T1: EsCas13d, nuclease-dead (Eubacterium siraeum, UniProt B0MS50, R295A;H300A;R849A;H854A)
T1 sequence: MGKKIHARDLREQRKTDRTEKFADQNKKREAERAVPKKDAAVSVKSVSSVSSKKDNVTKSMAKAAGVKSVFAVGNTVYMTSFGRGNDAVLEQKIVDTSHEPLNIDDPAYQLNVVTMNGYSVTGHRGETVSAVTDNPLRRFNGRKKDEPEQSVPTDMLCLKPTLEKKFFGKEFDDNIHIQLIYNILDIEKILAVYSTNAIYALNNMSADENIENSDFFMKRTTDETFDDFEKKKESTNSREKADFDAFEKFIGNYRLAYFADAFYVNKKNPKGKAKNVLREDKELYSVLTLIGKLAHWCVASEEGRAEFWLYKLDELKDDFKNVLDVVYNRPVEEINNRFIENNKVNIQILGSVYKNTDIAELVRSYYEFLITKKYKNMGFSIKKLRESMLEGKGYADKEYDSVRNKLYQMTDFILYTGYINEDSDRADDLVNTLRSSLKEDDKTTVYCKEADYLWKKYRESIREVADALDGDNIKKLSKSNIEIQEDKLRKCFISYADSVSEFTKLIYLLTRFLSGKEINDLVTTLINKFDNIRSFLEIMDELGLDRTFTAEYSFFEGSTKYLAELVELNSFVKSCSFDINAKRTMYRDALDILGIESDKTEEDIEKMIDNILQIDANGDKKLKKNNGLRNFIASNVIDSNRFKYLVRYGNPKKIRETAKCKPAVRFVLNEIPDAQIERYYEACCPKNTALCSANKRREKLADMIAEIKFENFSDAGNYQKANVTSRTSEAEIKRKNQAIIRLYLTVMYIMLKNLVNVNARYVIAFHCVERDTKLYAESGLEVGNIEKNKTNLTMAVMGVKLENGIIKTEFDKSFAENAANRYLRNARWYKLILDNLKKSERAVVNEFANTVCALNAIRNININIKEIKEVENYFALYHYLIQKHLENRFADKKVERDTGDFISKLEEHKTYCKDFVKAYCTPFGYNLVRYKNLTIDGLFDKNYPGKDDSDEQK

B1: target 1 G12U,G17C (mixed)
RNA 1: CACCCGUGCAAAAAUGCAGGGGUCUAAAACUGAGCGGAUAACCUCUCUAUGG
RNA 2: GGGAAUGGAUCCACAUCUACGAAUUCGUACCAUACAGAGUUUAUCCGCUCACCGAGAUCGGAAGAGCACACGU
B2: target 1 G5C,A16C (mixed)
RNA 1: CACCCGUGCAAAAAUGCAGGGGUCUAAAACUGAGCGGAUAACCUCUCUAUGG
RNA 2: GGGAAUGGAUCCACAUCUACGAAUUCGUACCAUAGCGAGGUUAUCCCCUCACCGAGAUCGGAAGAGCACACGU
B3: target 1 C7U,U10C (mixed)
RNA 1: CACCCGUGCAAAAAUGCAGGGGUCUAAAACUGAGCGGAUAACCUCUCUAUGG
RNA 2: GGGAAUGGAUCCACAUCUACGAAUUCGUACCAUAGAGAGGUCAUUCGCUCACCGAGAUCGGAAGAGCACACGU
B4: target 1 C6A,A20U (mixed)
RNA 1: CACCCGUGCAAAAAUGCAGGGGUCUAAAACUGAGCGGAUAACCUCUCUAUGG
RNA 2: GGGAAUGGAUCCACAUCUACGAAUUCGUACCUUAGAGAGGUUAUCAGCUCACCGAGAUCGGAAGAGCACACGU
B5: target 1 insU 3' of 15,insC 3' of 8 (mixed)
RNA 1: CACCCGUGCAAAAAUGCAGGGGUCUAAAACUGAGCGGAUAACCUCUCUAUGG
RNA 2: GGGAAUGGAUCCACAUCUACGAAUUCGUACCAUAGAGUAGGUUAUCCCGCUCACCGAGAUCGGAAGAGCACACGU
B6: target 1 U10A,A16G (mixed)
RNA 1: CACCCGUGCAAAAAUGCAGGGGUCUAAAACUGAGCGGAUAACCUCUCUAUGG
RNA 2: GGGAAUGGAUCCACAUCUACGAAUUCGUACCAUAGGGAGGUAAUCCGCUCACCGAGAUCGGAAGAGCACACGU
B7: target 1 insA 3' of 22,insU 3' of 20 (mixed)
RNA 1: CACCCGUGCAAAAAUGCAGGGGUCUAAAACUGAGCGGAUAACCUCUCUAUGG
RNA 2: GGGAAUGGAUCCACAUCUACGAAUUCGUACACAUUAGAGAGGUUAUCCGCUCACCGAGAUCGGAAGAGCACACGU
B8: target 1 insA 3' of 21,insG 3' of 14 (mixed)
RNA 1: CACCCGUGCAAAAAUGCAGGGGUCUAAAACUGAGCGGAUAACCUCUCUAUGG
RNA 2: GGGAAUGGAUCCACAUCUACGAAUUCGUACCAAUAGAGAGGGUUAUCCGCUCACCGAGAUCGGAAGAGCACACGU
B9: target 1 del9 (mixed)
RNA 1: CACCCGUGCAAAAAUGCAGGGGUCUAAAACUGAGCGGAUAACCUCUCUAUGG
RNA 2: GGGAAUGGAUCCACAUCUACGAAUUCGUACCAUAGAGAGGUUUCCGCUCACCGAGAUCGGAAGAGCACACGU
B10: target 1 insC 3' of 11,insU 3' of 2 (mixed)
RNA 1: CACCCGUGCAAAAAUGCAGGGGUCUAAAACUGAGCGGAUAACCUCUCUAUGG
RNA 2: GGGAAUGGAUCCACAUCUACGAAUUCGUACCAUAGAGAGGUCUAUCCGCUCUACCGAGAUCGGAAGAGCACACGU
B11: target 1 A20U,C22U (mixed)
RNA 1: CACCCGUGCAAAAAUGCAGGGGUCUAAAACUGAGCGGAUAACCUCUCUAUGG
RNA 2: GGGAAUGGAUCCACAUCUACGAAUUCGUAUCUUAGAGAGGUUAUCCGCUCACCGAGAUCGGAAGAGCACACGU
B12: target 1 insG 3' of 11,insA 3' of 7 (mixed)
RNA 1: CACCCGUGCAAAAAUGCAGGGGUCUAAAACUGAGCGGAUAACCUCUCUAUGG
RNA 2: GGGAAUGGAUCCACAUCUACGAAUUCGUACCAUAGAGAGGUGUAUCACGCUCACCGAGAUCGGAAGAGCACACGU
B13: target 1 A1U,U10C (mixed)
RNA 1: CACCCGUGCAAAAAUGCAGGGGUCUAAAACUGAGCGGAUAACCUCUCUAUGG
RNA 2: GGGAAUGGAUCCACAUCUACGAAUUCGUACCAUAGAGAGGUCAUCCGCUCUCCGAGAUCGGAAGAGCACACGU
B14: target 1 U8C,G13U (mixed)
RNA 1: CACCCGUGCAAAAAUGCAGGGGUCUAAAACUGAGCGGAUAACCUCUCUAUGG
RNA 2: GGGAAUGGAUCCACAUCUACGAAUUCGUACCAUAGAGAUGUUACCCGCUCACCGAGAUCGGAAGAGCACACGU
B15: target 1 U3A,A18C (mixed)
RNA 1: CACCCGUGCAAAAAUGCAGGGGUCUAAAACUGAGCGGAUAACCUCUCUAUGG
RNA 2: GGGAAUGGAUCCACAUCUACGAAUUCGUACCAUCGAGAGGUUAUCCGCACACCGAGAUCGGAAGAGCACACGU
B16: target 1 U3C,C7G (mixed)
RNA 1: CACCCGUGCAAAAAUGCAGGGGUCUAAAACUGAGCGGAUAACCUCUCUAUGG
RNA 2: GGGAAUGGAUCCACAUCUACGAAUUCGUACCAUAGAGAGGUUAUGCGCCCACCGAGAUCGGAAGAGCACACGU
B17: target 1 C4U,U8A (mixed)
RNA 1: CACCCGUGCAAAAAUGCAGGGGUCUAAAACUGAGCGGAUAACCUCUCUAUGG
RNA 2: GGGAAUGGAUCCACAUCUACGAAUUCGUACCAUAGAGAGGUUAACCGUUCACCGAGAUCGGAAGAGCACACGU
B18: target 1 insG 3' of 2,insC 3' of 1 (mixed)
RNA 1: CACCCGUGCAAAAAUGCAGGGGUCUAAAACUGAGCGGAUAACCUCUCUAUGG
RNA 2: GGGAAUGGAUCCACAUCUACGAAUUCGUACCAUAGAGAGGUUAUCCGCUCGACCCGAGAUCGGAAGAGCACACGU
B19: target 1 C4A,U19G (mixed)
RNA 1: CACCCGUGCAAAAAUGCAGGGGUCUAAAACUGAGCGGAUAACCUCUCUAUGG
RNA 2: GGGAAUGGAUCCACAUCUACGAAUUCGUACCAGAGAGAGGUUAUCCGAUCACCGAGAUCGGAAGAGCACACGU
B20: target 1 insG 3' of 6,insU 3' of 6 (mixed)
RNA 1: CACCCGUGCAAAAAUGCAGGGGUCUAAAACUGAGCGGAUAACCUCUCUAUGG
RNA 2: GGGAAUGGAUCCACAUCUACGAAUUCGUACCAUAGAGAGGUUAUCCGUGCUCACCGAGAUCGGAAGAGCACACGU
B21: target 1 C2U,U19C (mixed)
RNA 1: CACCCGUGCAAAAAUGCAGGGGUCUAAAACUGAGCGGAUAACCUCUCUAUGG
RNA 2: GGGAAUGGAUCCACAUCUACGAAUUCGUACCACAGAGAGGUUAUCCGCUUACCGAGAUCGGAAGAGCACACGU
B22: target 1 C6G,U19G (mixed)
RNA 1: CACCCGUGCAAAAAUGCAGGGGUCUAAAACUGAGCGGAUAACCUCUCUAUGG
RNA 2: GGGAAUGGAUCCACAUCUACGAAUUCGUACCAGAGAGAGGUUAUCGGCUCACCGAGAUCGGAAGAGCACACGU
B23: target 1 insU 3' of 14,insG 3' of 6 (mixed)
RNA 1: CACCCGUGCAAAAAUGCAGGGGUCUAAAACUGAGCGGAUAACCUCUCUAUGG
RNA 2: GGGAAUGGAUCCACAUCUACGAAUUCGUACCAUAGAGAUGGUUAUCCGGCUCACCGAGAUCGGAAGAGCACACGU
B24: target 1 G13A,A20C (mixed)
RNA 1: CACCCGUGCAAAAAUGCAGGGGUCUAAAACUGAGCGGAUAACCUCUCUAUGG
RNA 2: GGGAAUGGAUCCACAUCUACGAAUUCGUACCCUAGAGAAGUUAUCCGCUCACCGAGAUCGGAAGAGCACACGU
B25: target 1 U3G,A9G (mixed)
RNA 1: CACCCGUGCAAAAAUGCAGGGGUCUAAAACUGAGCGGAUAACCUCUCUAUGG
RNA 2: GGGAAUGGAUCCACAUCUACGAAUUCGUACCAUAGAGAGGUUGUCCGCGCACCGAGAUCGGAAGAGCACACGU
B26: target 1 insC 3' of 19,insG 3' of 7 (mixed)
RNA 1: CACCCGUGCAAAAAUGCAGGGGUCUAAAACUGAGCGGAUAACCUCUCUAUGG
RNA 2: GGGAAUGGAUCCACAUCUACGAAUUCGUACCAUCAGAGAGGUUAUCGCGCUCACCGAGAUCGGAAGAGCACACGU
B27: target 1 insU 3' of 18,insG 3' of 2 (mixed)
RNA 1: CACCCGUGCAAAAAUGCAGGGGUCUAAAACUGAGCGGAUAACCUCUCUAUGG
RNA 2: GGGAAUGGAUCCACAUCUACGAAUUCGUACCAUAUGAGAGGUUAUCCGCUCGACCGAGAUCGGAAGAGCACACGU

As usually defined, the Kd is the concentration at which binding is half-saturated. A higher Kd goes with lower affinity.

In this data set the target is T1, EsCas13d, nuclease-dead. In words: crRNA (strand 1, pre-loaded); Mg2+; 40 mM Tris-HCl pH 7.5, 150 mM NaCl, 6 mM MgCl2, 1 mM DTT, 0.1% Tween-20, 0.2 mg/ml BSA; 25 C; 10 min per concentration, then washed. Particulars: tags: His6-TwinStrep-SUMO cleaved; N-terminal SNAP kept (SNAP-Surface 488); label: 3' end held by stalled T7 RNA polymerase.
As to B1, the Kd is ~43 nM.

Take B2: the Kd came to 88 ± 15 nM.

B3 returned a Kd of 20.9 ± 1.5 nM.

B4 registered a Kd of 35.2 ± 2.1 nM.

For the molecule B5, the affinity, expressed as Kd, was 42 ± 6 nM.

With B6, the Kd was 38.4 ± 2.1 nM.

B7: the Kd was 16.7 ± 1 nM.

Molecule B8 yielded a Kd of 23.8 ± 2.3 nM.

Molecule B9 showed a Kd of 11.5 ± 0.6 nM. This Kd is about 2.1-fold lower than that of the molecule before.

B10 showed a Kd of 73 ± 21 nM. This Kd lies about 6.3-fold higher than the previous one.

B11 returned a Kd of 45 ± 8 nM.

Molecule B12 came in with a Kd of 21.7 ± 1.8 nM.

B13 displayed a Kd of 20 ± 1.7 nM.

B14 returned a Kd of 61 ± 11 nM.

B15 yielded a Kd of 50 ± 6 nM.

The molecule B16 gave a Kd of 8.47 ± 0.27 nM. Against the preceding molecule, the Kd is about 5.9-fold lower.

The molecule B17 returned a Kd of 19 ± 1.1 nM.

B18 yielded a Kd of 10.4 ± 1.3 nM. This Kd is about 1.8-fold lower than that of the molecule before.

B19 came in with a Kd of 49 ± 19 nM.

As for B20, binding was characterised by a dissociation constant (Kd) of 9.9 ± 0.7 nM. This Kd lies about 4.9-fold lower than the previous one.

For the molecule B21, binding was characterised by a dissociation constant (Kd) of 21.2 ± 1.5 nM.

Molecule B22 yielded a Kd of 42 ± 5 nM.

Molecule B23 came in with a Kd of 40 ± 6 nM.

B24 registered a Kd of 75 ± 29 nM.

Molecule B25 showed a Kd of 8.3 ± 0.8 nM. This Kd lies about 9-fold lower than the previous one.

As for B26, the Kd worked out at 24.1 ± 1.3 nM.

Molecule B27 gave a Kd of 26.4 ± 1.7 nM.

The values above are taken from paper PMC10786891, “Massively parallel profiling of RNA-targeting CRISPR-Cas13d”.
